Three molecules from PMC13506345, “Loss of cellular RNA homeostasis contributes to MDA5 activation during virus infection” (Nature Immunology, 2026) can be followed below.

Where two headings read alike, the source gives them in different places.

Assay [1] concerns the target T1, melanoma differentiation-associated protein 5 (MDA5) (Homo sapiens (THP1 cells, endogenous), UniProt Q9BYX4).
T1 construct: MDA5 (melanoma differentiation-associated protein 5), endogenous in human monocytic THP1 cells; printed MW 135 kDa; native in the cell lysate for the first IP, denatured (6 M urea, 1% SDS eluate of the first IP) for the second IP; The same endogenous protein stood native (IP1) and denatured (IP2); the two states are told apart by the assays; also called endogenous MDA5; native MDA5; source: …
As to the kind of experiment: immunoprecipitation; second IP (IP2): MDA5 eluted from IP1 with urea cracking buffer (6 M urea, 1% SDS, 65 °C), neutralised with T-20 IP buffer, incubated with antibody B on Protein G Dynabeads 2 h at 4 °C; IP analysed by western blot for MDA5. Conditions: both partners purified. On the technique in general: Immunoblotting shows a protein as a band on a membrane.

Assay [2] deals with T1, melanoma differentiation-associated …. The assay can be described thus: immunoprecipitation; first IP (IP1): antibody A coupled to Dynabeads, incubated with THP1 cell lysate (native MDA5) 2 h at 4 °C, high-salt washes; IP analysed by western blot for MDA5. The conditions noted are these: one partner purified.
Assay [3] shares this target.

T1 sequence (Q9BYX4 whole entry): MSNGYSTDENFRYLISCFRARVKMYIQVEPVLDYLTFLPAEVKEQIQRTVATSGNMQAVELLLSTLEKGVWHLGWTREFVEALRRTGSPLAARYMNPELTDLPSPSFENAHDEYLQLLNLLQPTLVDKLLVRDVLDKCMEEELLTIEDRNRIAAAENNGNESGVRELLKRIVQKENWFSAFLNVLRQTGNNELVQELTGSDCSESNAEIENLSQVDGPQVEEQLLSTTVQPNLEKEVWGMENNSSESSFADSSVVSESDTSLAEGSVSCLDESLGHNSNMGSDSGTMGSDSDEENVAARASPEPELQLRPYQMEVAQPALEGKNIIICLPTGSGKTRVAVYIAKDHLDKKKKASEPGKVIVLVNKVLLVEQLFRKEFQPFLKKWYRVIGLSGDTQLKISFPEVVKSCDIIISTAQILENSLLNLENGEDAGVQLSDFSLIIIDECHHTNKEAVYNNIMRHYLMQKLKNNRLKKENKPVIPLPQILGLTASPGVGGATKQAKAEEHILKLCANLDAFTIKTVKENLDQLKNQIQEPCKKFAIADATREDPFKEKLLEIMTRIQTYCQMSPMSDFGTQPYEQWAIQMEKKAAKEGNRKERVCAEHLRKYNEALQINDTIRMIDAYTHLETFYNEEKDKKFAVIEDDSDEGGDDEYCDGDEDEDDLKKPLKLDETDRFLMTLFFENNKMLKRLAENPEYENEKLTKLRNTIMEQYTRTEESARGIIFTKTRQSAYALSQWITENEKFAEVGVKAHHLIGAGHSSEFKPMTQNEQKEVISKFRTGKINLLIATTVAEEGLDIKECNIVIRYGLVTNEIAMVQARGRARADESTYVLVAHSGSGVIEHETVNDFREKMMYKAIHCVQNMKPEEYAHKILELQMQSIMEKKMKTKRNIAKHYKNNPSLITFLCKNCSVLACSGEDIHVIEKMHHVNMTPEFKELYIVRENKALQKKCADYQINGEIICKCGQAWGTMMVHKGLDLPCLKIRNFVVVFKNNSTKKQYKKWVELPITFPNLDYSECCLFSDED

B1: anti-MDA5 monoclonal antibody B (clone 22) (antibody, V domains shown)
VH: QVQLQQSGPELVKPGASVKMSCKASGYTFTDYVISWVKQRTGQGLEWIGEIYPGSGNTFYNEKFKGKATLTADKSSNTAYMQLSSLTSEDSAVYFCARSGDYDLDYWGQGTSVTVSS
VL: EIVLTQSPTTMAASPGEKITITCSASSSISSNYLHWYQQKPGFSPKLLIYRTSNLASGVPARFSGSGSGTSYSLTIGTMEAEDVATYYCQQGGSIPLTFGAGTKLELK
notes: Hybridoma was non-recoverable; In some radiolabeling experiments pooled ascites fluids from several hybridoma clones including antibody B were used instead; Preincubated with Protein G Dynabeads for the IP; also called Ab B; monoclonal antibody 22
With B1, the binding result in assay [1] was “binds”.

B2: anti-MDA5 monoclonal antibody A (clone 16) (antibody, V domains shown)
VH: QVQLQQSGPDLVRPGTSVKMSCKAAGYTFTNSWIGWLKQRPGHGLEWIGDIYPGGGDTNSNENFKGKATLTADTSSSTAYMQLSSLTSEDSAVYYCARSTVIMRGYFDVWGAGTMVTVSS
VL: DIQMTQSPASLSASVGETVTITCRASGNIHNFLAWYQQKQGKSPQLLVYNAKTLADGVPSRFSGSGSGTQYSLKINSLQPEDFGSYYCQHFWSTPLTFGAGTKLELK
notes: Monoclonal antibody raised against MDA5 (generated by C. Song and B. Jin); covalently coupled to Dynabeads for the IP; also called Ab A; monoclonal antibody 16; source: hybridoma cells grown in bioreactors (CELLline)
As for B2, the binding result in assay [2] was “binds”.

B3: mAb 17 (antibody, V domains shown)
VH: QVQLQQSGAELVRPGASVTLSCKASGYTFADYEIHWVRQTPVHGLEWIGAIGPETGNTAYNQKFKGKATLTVDKSSSTVYMDLRSLTSEDSAVYYCTRGRILDWGQGTLVTVSA
VL: DVVMTQTPLSLPVSLGDQASISCRSSQSLVHSNGNTYLHWYLQKPGQSPKLLIYKVSKRFSGVPDRFSGSGSGTDFTLKISRVEAEDLGVYFCSQSTHIPYTFGGGTKLEIK
On to B3, for which the binding result in assay [3] is on record as “binds”.
